Source: paper doi:10.1101/2020.12.03.409995 (2020)

Tests used:
[1] = target: T1, Biotin-Aβ42 oligomers (human, UniProt P05067 672-713, biotin (position not given)); test: BLI; koff2 (second site)
[2] = target: T1, Biotin-Aβ42 oligomers; test: BLI; koff1 (first site)

koff [1]: 0.00772 s⁻¹
koff [2]: 0.435 s⁻¹
B1: wild-type sTREM2 (TREM2 ectodomain, residues 19-143, His-tagged) (domain or fragment)
chain: HNTTVFQGVAGQSLQVSCPYDSMKHWGRRKAWCRQLGEKGPCQRVVSTHNLWLLSFLRRWNGSTAITDDTLGGTLTITLRNLQPHDAGLYQCQSLHGSEADTLRKVLVEVLADPLDHRDAGDLWF
